The values below come from article PMC4119599 (Biochemistry, 2011).

For series [1], the target named is T1, mtMenB (Mycobacterium tuberculosis, UniProt P9WNP5). In words: not stated. Type of series: binding.
The subject of series [2] is CC(C)(COP(=O)(O)OP(=O)(O)OC[C@H]1O[C@@H](n2cnc3c(N)ncnc32)[C@H](O)[C@@H]1OP(=O)(O)O)[C@@H](O)C(=O)NCCC(=O)NCCSC(=O)CCC(=O)c1ccccc1C(=O)O. The series can be described thus: purified protein. The note with it: pH 7.0; 25.0 °C.
Series [3] has as its system CC(C)(COP(=O)(O)OP(=O)(O)OC[C@H]1O[C@@H](n2cnc3c(N)ncnc32)[C@H](O)[C@@H]1OP(=O)(O)O)[C@@H](O)C(=O)NCCC(=O)NCCSC(=O)CCCc1ccccc1C(=O)O. In words: purified protein. The note with it: pH 7.0; 25.0 °C.
Series [4] deals with T1, mtMenB. The series can be described thus: X-ray co-crystal structure, […] Å. Format: binding. The note with it: partial occupancy, weak density, acyl part not resolved; pH 8.0.
The target in the next series is ecMenB (Escherichia coli, UniProt P0ABU0). The series can be described thus: X-ray co-crystal structure, […] Å. Type of series: binding. The note with it: all six active sites of the hexamer; stable substrate analogue; pH 6.5.
ecMenB, sequence (P0ABU0 whole entry): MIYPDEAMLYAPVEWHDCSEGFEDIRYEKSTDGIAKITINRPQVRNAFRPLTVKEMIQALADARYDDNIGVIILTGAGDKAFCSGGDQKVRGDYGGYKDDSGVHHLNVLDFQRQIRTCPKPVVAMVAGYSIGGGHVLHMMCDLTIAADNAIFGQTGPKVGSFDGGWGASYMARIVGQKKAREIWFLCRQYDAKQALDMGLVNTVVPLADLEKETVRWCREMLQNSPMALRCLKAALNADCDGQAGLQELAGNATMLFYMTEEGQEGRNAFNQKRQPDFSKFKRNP
The subject of series [5] is CC(C)(COP(=O)(O)OP(=O)(O)OC[C@H]1O[C@@H](n2cnc3c(N)ncnc32)[C@H](O)[C@@H]1OP(=O)(O)O)[C@@H](O)C(=O)NCCC(=O)NCCSC(=O)CCC(=O)c1ccccc1C(=O)O. The series can be described thus: purified protein. Format: biochemical, Escherichia coli. The note with it: pH 7.0; 25.0 °C.

T1 sequence (P9WNP5 whole entry): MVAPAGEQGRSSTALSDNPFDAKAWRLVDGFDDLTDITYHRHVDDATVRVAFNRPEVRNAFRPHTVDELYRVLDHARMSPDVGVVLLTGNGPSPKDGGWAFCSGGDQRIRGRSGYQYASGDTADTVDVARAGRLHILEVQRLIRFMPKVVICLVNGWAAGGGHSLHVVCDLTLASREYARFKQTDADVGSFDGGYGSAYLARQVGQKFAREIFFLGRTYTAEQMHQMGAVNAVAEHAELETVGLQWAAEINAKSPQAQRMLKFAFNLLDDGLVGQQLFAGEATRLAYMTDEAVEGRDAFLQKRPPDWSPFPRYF

As for `COC(=O)c1ccccc1C(=O)CCC(=O)SCCNC(=O)CCNC(=O)[C@H](O)C(C)(C)COP(=O)(O)OP(=O)(O)OC[C@H]1O[C@@H](n2cnc3c(N)ncnc32)[C@H](O)[C@@H]1OP(=O)(O)O` [OSB-CoA methyl ester], the Kd – broadly, a measure of binding affinity in units of concentration – on mtMenB [1] came out at 11.5 ± 1.2 µM.
For the compound (Mycobacterium tuberculosis H37Rv), the figures for the Michaelis-Menten constant (Km) in series [2] and in series [3] were 22.4 ± 2.1 µM and 106 ± 31 µM, respectively. Further, in series [3], the specificity constant (kcat/Km) (as a rule, the turnover number divided by the Michaelis constant) turned out to be 2.4 ± 0.7 M⁻¹ s⁻¹.
`CC(C)(COP(=O)(O)OP(=O)(O)OC[C@H]1O[C@@H](n2cnc3c(N)ncnc32)[C@H](O)[C@@H]1OP(=O)(O)O)[C@@H](O)C(=O)NCCC(=O)NCCNC(=O)CCC(=O)c1ccccc1C(=O)O` [OSB-NCoA]: the “X-ray co-crystal structure, 2.25 Å” value on mtMenB [4] was “Density for OSB-NCoA can be observed but is weak in chain C”. The “X-ray co-crystal structure, 2.00 Å” value on ecMenB is on record as “In the structure of OSB-NCoA bound to ecMenB, the ligand can be observed in all six”.
Turning to (Escherichia coli K-12), the Km (in general, the concentration of substrate that gives half-maximal velocity) in series [5] was found to be 25.9 ± 3.3 µM.
